According to the nanobody polyreactivity screen of Harvey et al. (2022):

Assay: yeast display, Sf9 membrane polyspecificity reagent, FACS + sequencing; frameworks hold sequencing errors
How it was run: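 Using colony PCR, genes from sorted yeast display clones were amplified, then sequenced on MiSeq at 2 × 250 and filtered by CDR length. The clones had been stained with 10% biotinylated, detergent-solubilized Sf9 membrane reagent for 1 hour at 4 °C and sorted by FACS into low and high (top ~1%) gates on anti-HA and streptavidin fluorescence. Polyreactivity labels come from the gate of origin.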

Q: With “QVQLVESGGGLVQAGGSLRLSCAASGSNFYRNAMGWYRQAPGKERELVAGIRWTGTRTYYADSVKGRFTISRDNAKNTVYLQMNSLKPEDTAVYYCNAVYSLSNAVDGDYWGQVTQVTVSS” as the sequence, how does the “polyreactivity (PSR sort gate)” value read?
A: high polyreactivity

Q: For “QVQLVESGGGLVQAGGSLRLSCAASGSNIGTYAMGWYRQAPGKERELVAAISSSGGRTYYADSVKGRFTISRDNAKNTVYLQMNSLKPEDTAVYYCATKRVLTGYDSWGQGTQVTVSS”, which “polyreactivity (PSR sort gate)” value is on record?
A: high polyreactivity

Q: For “QVQLVESGGGLVQAGGSLRLSCAASGSNITPNAMGWYRQAPGKERELVAAISSSSDRTYYADSVKGRFTISRDNAKNTVYLQMNSLKPEDTAVYYCAAYAQKRYYWGQGTQVTVSS”, which “polyreactivity (PSR sort gate)” value is on record?
A: high polyreactivity

Q: For “QVQLVESGGGLVQAGGSLRLSCAASGSNSDPYAMGWYRQAPGKEREFVAAITFSVSSTYYADSVKGRFTISRDNAKNTVYLQMNSLKPEDTAVYYCAARRPLYPERDYWGQGTQVTVSS”, which “polyreactivity (PSR sort gate)” value is on record?
A: high polyreactivity

Q: Which “polyreactivity (PSR sort gate)” value does the source give for “QVQLVESGGGLVQAGGSLRLSCAASGSNYGFYAMGWYRKAPGKERELVAVISSDGSTNYADSVKGRFTISRDNAKNTVYLQMNSLKPEDTAVYYCAADWSITYGDGGYWGQGTQVTVSS” here?
A: low polyreactivity

Q: With “QVQLVESGGGLVQAGGSLRLSCAASGSNYSGYAMGWARQAPGKERELVAAITKSGGRTYYADSVKGRFTISRDNAKNTVYLQMNSLKPEDTAVYYCAKAYPGTYREYDYWGQGTQVTVSS” as the sequence, how does the “polyreactivity (PSR sort gate)” value read?
A: high polyreactivity

Q: With “QVQLVESGGGLVQAGGSLRLSCAASGSPFHRYVMGWYRQAPGKERELVAVINSTGGSTYYADSVKGRFTISRDHAKNTVDLQMNSLKPEDTAVYYCNAVRDWGPSQVYDGMDYWGQGTQVTVSS” as the sequence, how does the “polyreactivity (PSR sort gate)” value read?
A: low polyreactivity

Q: For “QVQLVESGGGLVQAGGSLRLSCAASGSPFSRNAMGWYRPAPGKEREMVAAISYSGGSTYYADSVKGRFTISRDNAKNTVYLQLNSLKPEDTAVYYCNTYIVNYSGQEMVYWGQGTQVTVSS”, which “polyreactivity (PSR sort gate)” value is on record?
A: high polyreactivity

Q: Which “polyreactivity (PSR sort gate)” value does the source give for “QVQLVESGGGLVQAGGSLRLSCAASGSPSQPYAMGWYRQAPGKVRELVASITNGGITYYADSVKGRFPISRDNANNTVELQMNSLKPEDTAVYYCARTGPSAYWEFDYWGQGTQVTVSS” here?
A: low polyreactivity

Q: Which “polyreactivity (PSR sort gate)” value does the source give for “QVQLVESGGGLVQAGGSLRLSCAASGSPSYFNVKGWYRQAPGKERQLVAAISWSGGSTYADSVKGRFTISRDNAKNTVYLQMNSLKREDTAFYYCNKDYGYVQLRFYCPGYYWGQGTQVTVSS” here?
A: low polyreactivity

Q: Which “polyreactivity (PSR sort gate)” value does the source give for “QVQLVESGGGLVQAGGSLRLSCAASGSSFEPNAMGWYRQAPGKERELVASITSSGGNTYYADSVKGRFTISRDNAKNTVYLQMNSLKPEDTAVYSCAAGSGYAFGGYYLWGFGYWGQGTQVTVSS” here?
A: low polyreactivity

Q: With “QVQLVESGGGLVQAGGSLRLSCAASGSSFRRYAMGWSRQAPGKERELVASITASGGSTYYADSVKGRFTISRDNAKNTVYLQMNSLKAEDTAVYYCNKDTIKSYYRRYDSWGQGTQVTVSS” as the sequence, how does the “polyreactivity (PSR sort gate)” value read?
A: low polyreactivity

Q: With “QVQLVESGGGLVQAGGSLRLSCAASGSSFTWYAMGWYRQAPGKERELVAAITRGGSTYADSVKGRFTISRDNAKNTVYLQMNSLKPEDTAVYYCNAVYGVYDFNYWGQGTQVTVSS” as the sequence, how does the “polyreactivity (PSR sort gate)” value read?
A: low polyreactivity

Q: With “QVQLVESGGGLVQAGGSLRLSCAASGSTAYVMGWYRQAPGKETELVAAISKSGGSTYYADSVKGRFTISRDNAKNTVYLQMNSLKPEDTAVYYCSALYPTTTAYRYGYWGQGTQVTVSS” as the sequence, how does the “polyreactivity (PSR sort gate)” value read?
A: high polyreactivity

Q: Which “polyreactivity (PSR sort gate)” value does the source give for “QVQLVESGGGLVQAGGSLRLSCAASGSTCGTNAMGWYRQAPGKERELVAAITWSGGRTYYADSVKGRFTISRDNAKNTVYLQMISLKPEDTAVYYCNAGYSYRRRNGYGYDYWGQGTQVTVSS” here?
A: high polyreactivity

Q: Which “polyreactivity (PSR sort gate)” value does the source give for “QVQLVESGGGLVQAGGSLRLSCAASGSTFAANTMGWYRQAPGKERELVAAITVRGGSTYYADSVKGRFTISRDNAKNTVYLLMQSLKPEDTAVYYCAAERPPYGYLVVGYVSTQYYYWGQGTQVTVSS” here?
A: low polyreactivity

Q: For “QVQLVESGGGLVQAGGSLRLSCAASGSTFAFNAMGWYRQAPGQERELVAGITWSSGSTYYADSVKGRFTISRDNAKNTVYLQMNSLKPEDTAVYYCNVQSVHFRLWKDNYWGQGTQVTVSS”, which “polyreactivity (PSR sort gate)” value is on record?
A: high polyreactivity

Q: For “QVQLVESGGGLVQAGGSLRLSCAASGSTFAFYAMGWYRQAPGKERELVAAITWRVGSTYYADSVKGRFTISRDNAKNTVYLQMNSLKPEDTAVYYCAVDIPFYDSDYWGQGTQVTVSS”, which “polyreactivity (PSR sort gate)” value is on record?
A: low polyreactivity

Q: Which “polyreactivity (PSR sort gate)” value does the source give for “QVQLVESGGGLVQAGGSLRLSCAASGSTFAGNAMGWYRQAPGKERELFAAITFSGGRTDYADSVKGRFTISRDNAKNTVYLQMNSLKPEDTAVYYCAAPADVTVHYLNYYWGQGTQVTVSS” here?
A: low polyreactivity

Q: With “QVQLVESGGGLVQAGGSLRLSCAASGSTFAGNPMGWYRQATGKERELVAAIDSSTGSTYYADSVKGRFTISRDNAMNTVYLQMNSLKPEDTAVYYCNKTSFLVKLDYWGQGTQVTVSS” as the sequence, how does the “polyreactivity (PSR sort gate)” value read?
A: low polyreactivity

Q: For “QVQLVESGGGLVQAGGSLRLSCAASGSTFAGYAMGWYRQAPGKERELVAAIRSGGSTYYADSVKGRFTISRDNAKNTVYLQMNSLKPEDTAVYYCNAVYAFNGYDYWGQVTQVTVSS”, which “polyreactivity (PSR sort gate)” value is on record?
A: low polyreactivity

Q: Which “polyreactivity (PSR sort gate)” value does the source give for “QVQLVESGGGLVQAGGSLRLSCAASGSTFAGYAMGWYRQAPGKERELVAAISWNGGSTYYADSVKGRFTISRDNAKNTVYLQMNSLKPEDTAVYYCAKARYYSWKGKGDYWGQGTQVTVSS” here?
A: high polyreactivity

Q: Which “polyreactivity (PSR sort gate)” value does the source give for “QVQLVESGGGLVQAGGSLRLSCAASGSTFAIYAMGWYRQAPGKERELVAAISKSGGSTYYADSVKGRFTISRDNAKNTVYLQMNILKPEDTAVYYCARRQYAFGPYGFYYWGQGTQVTVSS” here?
A: high polyreactivity

Q: Which “polyreactivity (PSR sort gate)” value does the source give for “QVQLVESGGGLVQAGGSLRLSCAASGSTFAKNAMGWYRQAPGKERELVAAITYSGGSTYYADSVKGRFTISRDYAKNTVYLEMYSLKPEYTAVYYCAADVWWSYFRYDYWGQGTQVTVSW” here?
A: low polyreactivity

Q: Which “polyreactivity (PSR sort gate)” value does the source give for “QVQLVESGGGLVQAGGSLRLSCAASGSTFALNAMGWYRQAPGKERELVAAITTGGHTYYADSVKGRFTISRDNAKNTDYLQMNSLKPEDTAVYYCATVFYFDYYYHYDYWGQGTQVTVSS” here?
A: low polyreactivity

Q: Which “polyreactivity (PSR sort gate)” value does the source give for “QVQLVESGGGLVQAGGSLRLSCAASGSTFALYTMGWYRQAPGKERELVAGITIDGSTNYADSVKGRFTISRDNAKNTVYLQMNSLKPEDTAVYYCNADSYKYPLLKYRSDYWGQGTQVTVSS” here?
A: low polyreactivity

Q: With “QVQLVESGGGLVQAGGSLRLSCAASGSTFANYAMGWYRQAPGKERELVAGISWRGGRTYYADSVKGRFTISRDNAKNTVYLQMNSLKPEDTAVYYCAAEVLKTRWSYDYWGQGTQVTVSS” as the sequence, how does the “polyreactivity (PSR sort gate)” value read?
A: high polyreactivity

Q: For “QVQLVESGGGLVQAGGSLRLSCAASGSTFANYVMGWYRQAPGKEREVVAAISWTGGSTYYADSVKGRFTISRDNAKNTVYLQMHSLKPEDTAVYYCNAASYAWLWHPKSGLYDYWGQGTQVTVSS”, which “polyreactivity (PSR sort gate)” value is on record?
A: low polyreactivity

Q: Which “polyreactivity (PSR sort gate)” value does the source give for “QVQLVESGGGLVQAGGSLRLSCAASGSTFAPNAMGWYRQAPGKERELVAAISSGGDSTNYADYVKGRFTISRDNAKNTVYLQMNSLKPEDTAVYYCAHGYCFVAYDYWGQGTQVTVSS” here?
A: low polyreactivity

Q: With “QVQLVESGGGLVQAGGSLRLSCAASGSTFAQNAMGWYRQAPGKEREYVAAITGTVGSTYYADSVKGRFTISRDNAKNTVYLQMNSLKPEDTAVYYCNTRGFNGRVYPYDYWGQGTQVTVSS” as the sequence, how does the “polyreactivity (PSR sort gate)” value read?
A: low polyreactivity

Q: For “QVQLVESGGGLVQAGGSLRLSCAASGSTFAQYAMGWYRQAPGKEREFVAAITRGGGRTYYADSVKGRFTISRDNAKNSVYLQMNSLKPEDTAVYYCNAVYRYYPFDYWGQGTQVTVSS”, which “polyreactivity (PSR sort gate)” value is on record?
A: high polyreactivity

Q: Which “polyreactivity (PSR sort gate)” value does the source give for “QVQLVESGGGLVQAGGSLRLSCAASGSTFAQYAMGWYRQPPRKERELVAAISRRGASTYYADSVKGLFTISRDIAKNTVYLQMNSLKPEDTAVYYCNAVRGEKMGYWGQGTQVTVSS” here?
A: high polyreactivity

Q: For “QVQLVESGGGLVQAGGSLRLSCAASGSTFARNARGWYRQAPGKERELVAAITTRGSSTYYADSVKGRFTISRDNAKNTVYLQMHSLKPEDTAVYYCAADSRRSWYWGGYRQTGMGYWGQGTQVTVSS”, which “polyreactivity (PSR sort gate)” value is on record?
A: high polyreactivity

Q: Which “polyreactivity (PSR sort gate)” value does the source give for “QVQLVESGGGLVQAGGSLRLSCAASGSTFARYAMGWYRHAPGKETELVAGIWNTGRTYYADSVKGRFTISRDNAKNTVYLQMNSLKPEDTAVYYCAALYNSPNVTYYYWGQGTQVTVSS” here?
A: high polyreactivity

Q: Which “polyreactivity (PSR sort gate)” value does the source give for “QVQLVESGGGLVQAGGSLRLSCAASGSTFARYAMGWYRPAPGKERELVAVIRSGGSTNYADSVKGRFTISRDNAKNTVYLQMNSLKPEDTAGAADQWTIHRWATYGYWGQGTQVTVSS” here?
A: low polyreactivity

Q: For “QVQLVESGGGLVQAGGSLRLSCAASGSTFARYAMGWYRQAPGKERELVAAISKGGDRTYYADSVKGRFTISRDNAKNTVYLQMNSLKPEDTAVYYCAARYTPRRYYYWGQGTQVTVSS”, which “polyreactivity (PSR sort gate)” value is on record?
A: high polyreactivity

Q: With “QVQLVESGGGLVQAGGSLRLSCAASGSTFARYAMGWYRQAPGKERELVASITQSSGSTYYADSVKGRFTISRDNAKSTVYLQMNSLKPEDTAVYYCAKVISYGPVPDRYDYWGQGTQVTVSS” as the sequence, how does the “polyreactivity (PSR sort gate)” value read?
A: high polyreactivity

Q: With “QVQLVESGGGLVQAGGSLRLSCAASGSTFARYAMGWYRQAPGKERELVAVITRSGGSTYYADSVKGRFTISRDNAKNTVYLQMNSLKPEDTDVYYCNKYGYKGGVGYDYWGQGTQVTVSS” as the sequence, how does the “polyreactivity (PSR sort gate)” value read?
A: high polyreactivity

Q: Which “polyreactivity (PSR sort gate)” value does the source give for “QVQLVESGGGLVQAGGSLRLSCAASGSTFASNAMGWYRQAPGKERELVAAITSRDASTYYADSVKGRFTISRDNAKNTVYLQMNSLKPEDTAVYYCATDGYSPAAFDYWGQGTQVTVSS” here?
A: low polyreactivity

Q: Which “polyreactivity (PSR sort gate)” value does the source give for “QVQLVESGGGLVQAGGSLRLSCAASGSTFASYAMGWYIQAPGKERELVAAITDSGGSTYYADSVKGRFTISRDNAKNTVYLQMNSLKPEDTAVYYCAAYGPYFSYHDYDYWGQGTQVTVSS” here?
A: low polyreactivity

Q: With “QVQLVESGGGLVQAGGSLRLSCAASGSTFASYAMGWYRQAPGKERELVAAIRWRGGTTYYADSVKGRFTISRDNAKNTVNLQMNSLKPEDTAVYYCNADRYYLYYFWGQGTQVTVSS” as the sequence, how does the “polyreactivity (PSR sort gate)” value read?
A: low polyreactivity

Q: For “QVQLVESGGGLVQAGGSLRLSCAASGSTFATDAMGWYRQAPGTERELVAVISRSGGSTYYADSVKGRFTISRDNAKNTVYLQMNSLKPEDTAVYYCAARLVNKSRWGTLRYDYWGQGTQVTVSS”, which “polyreactivity (PSR sort gate)” value is on record?
A: high polyreactivity

Q: For “QVQLVESGGGLVQAGGSLRLSCAASGSTFATNAMGWYRQAPGKERELVAAIRRGGGTYYADSVKGRFTISRDNAKNTVYLQMNSLKPEDTAVYYCAALYGGRRPYEYWGQGTQVTVSS”, which “polyreactivity (PSR sort gate)” value is on record?
A: high polyreactivity
